The numbers were not newly measured in publication PMC2888655, which cites them from elsewhere.

What is called Kd is the equilibrium constant for the complex coming apart.

Like-named read-outs stand apart in the source and are kept apart here.

Data set [1] has as its target IGF2 (Homo sapiens) (UniProt P01344). In words: SPR.
The target in data set [2] is IGF1 (Homo sapiens) (UniProt P05019). As to the kind of experiment: SPR.
For data set [3] the target is unchanged.
Data set [4] has as its target IGF2 (Homo sapiens) (UniProt P01344).

IGF1R (from UniProt P08069), sequence (P08069 31-736): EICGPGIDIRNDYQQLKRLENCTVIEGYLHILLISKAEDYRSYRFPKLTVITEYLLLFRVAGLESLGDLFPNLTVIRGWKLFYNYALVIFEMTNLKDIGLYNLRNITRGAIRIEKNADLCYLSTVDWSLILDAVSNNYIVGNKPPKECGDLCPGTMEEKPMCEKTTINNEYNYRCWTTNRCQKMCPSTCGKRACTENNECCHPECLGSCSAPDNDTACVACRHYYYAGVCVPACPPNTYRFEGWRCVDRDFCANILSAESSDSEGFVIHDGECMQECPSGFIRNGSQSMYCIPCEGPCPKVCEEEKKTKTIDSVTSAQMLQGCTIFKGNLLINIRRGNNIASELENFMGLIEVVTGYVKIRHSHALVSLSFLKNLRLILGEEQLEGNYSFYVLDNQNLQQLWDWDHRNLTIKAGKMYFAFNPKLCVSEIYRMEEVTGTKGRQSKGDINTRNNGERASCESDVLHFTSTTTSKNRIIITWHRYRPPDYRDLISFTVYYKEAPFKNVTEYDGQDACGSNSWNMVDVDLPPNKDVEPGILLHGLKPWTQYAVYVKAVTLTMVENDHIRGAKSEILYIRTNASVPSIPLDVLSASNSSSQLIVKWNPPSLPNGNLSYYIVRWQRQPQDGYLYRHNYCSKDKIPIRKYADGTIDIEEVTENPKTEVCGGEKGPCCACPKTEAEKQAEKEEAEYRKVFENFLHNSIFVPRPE
IGF1R (from UniProt P08069), sequence (P08069 741-935): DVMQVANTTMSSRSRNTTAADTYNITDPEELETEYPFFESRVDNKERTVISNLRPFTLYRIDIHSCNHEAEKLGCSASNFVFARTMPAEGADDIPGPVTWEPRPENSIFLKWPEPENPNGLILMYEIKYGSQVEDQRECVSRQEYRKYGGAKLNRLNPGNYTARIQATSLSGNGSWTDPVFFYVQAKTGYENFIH
IGF1R (from UniProt Q05688), sequence (Q05688 14-208): as the sequence (P08069 741-935) above, with D1E, V5I, A19V, A20L, G189T counted along it
IGF2 (Homo sapiens), sequence (P01344 25-91): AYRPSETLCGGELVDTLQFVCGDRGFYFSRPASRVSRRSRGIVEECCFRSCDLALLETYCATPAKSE
IGF1 (Homo sapiens), sequence (P05019 49-118): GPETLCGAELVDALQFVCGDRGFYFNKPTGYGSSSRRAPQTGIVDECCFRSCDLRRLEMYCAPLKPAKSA

In the case of IGF1R (from UniProt P08069), the Kd was 17.8 nM with IGF2 (Homo sapiens) [1] and 4.45 nM with IGF1 (Homo sapiens) [2].

Turning to IGF1R (from UniProt Q05688), the Kd in the data set with IGF1 (Homo sapiens) [3] and in the data set with IGF2 (Homo sapiens) [4] was 1 nM throughout.
